# Results from patent US20240279845A1, “METHOD FOR PREPARING A LIBRARY OF PEPTIDES OR A PEPTIDE” (ECOLE POLYTECHNIQUE FEDERALE DE LAUSANNE (EPFL), priority 2021, published 2024).
# Substrate: Cc1cc(=O)oc2cc(NC(=O)[C@H](CCCNC(=N)N)NC(=O)CNC(=O)[C@H](CCC(N)=O)NC(=O)OC(C)(C)C)ccc12
# Test: Substrate KM for protease screen, FXII
# Type: biochemical
# Details: other: FXII
# Procedure: Crude macrocyclic libraries (4 mM DMSO stocks in 384-well LDV plates were transferred into 1536-well microtiter OptiPlates via ADE. Applied buffered solutions were prepared by filtration through PTFE syringe filters (0.22 μm) and assays were initiated by addition of protease (4.41 μl/well) in appropriate buffer (see list below) supplemented with bovine serum albumin (BSA; 0.1% w/v) and dispensed using a CERTUS automated liquid handler. Plates were incubated for 10 min at ambient temperature before fluorogenic substrate in appropriate buffer (4.5 μl) was added using a CERTUS automated liquid handler. Plates were centrifugated (800 g, 2 min) and fluorescence intensity was measured using a PHERAstar plate reader (excitation 384 nm, emission 440 nm) in time increments of 150 s over 15 min. Slopes of fluorescence increase (m) were calculated with Microsoft Excel (vers. 16.56). Negative controls were prepared without macrocycle. An average of 12 negative controls was used to calculate residual activities using Equation I below: […]
# where [S]0 is the initial substrate concentration and KM is the Michaelis-Menten constant^12 for the enzyme and substrate.
protein,measurement,value
FXII (Homo sapiens) (protein) VVGGLVALRGAHPYIAALYWGHSFCAGSLIAPCWVLTAAHCLQDRPAPEDLTVVLGQERRNHSCEPCQTLAVRSYRLHEAFSPVSYQHDLALLRLQEDADGSCALLSPYVQPVCLPSGAARPSETTLCQVAGWGHQFEGAEEYASFLQEAQVPFLSLERCSAPDVHGSSILPGMLCAGFLEGGTDACQGDSGGPLVCEDQAAERRLTLQGIISWGSGCGDRNKPGVYTDVAYYLAWIREHTVS,Km,260 ± 40 µM
